In patent publication US20220275390A1, “RUBISCO-BINDING PROTEIN MOTIFS AND USES THEREOF” (The Trustees of Princeton University, priority 2019, published 2022):

Legend:
EPYC1 = test: Yeast two-hybrid assay of EPYC1 with Rubisco SSU variants; type: cell-based, Chlamydomonas reinhardtii; details: growth on SD-L-W-H with 3-AT, three days, FIGS. 9A-9C
From the text: FIGS. 9A-9C show the results of a yeast two-hybrid (Y2H) assay to measure the interaction between EPYC1 and Rubisco SSU variants. […] The images shown were taken following three days of cell growth. The Rubisco SSU residues that form salt bridges with EPYC1 residues are bolded (D23, E24, and R91) and the residues that form the hydrophobic pocket with EPYC1 residues are bolded and italicized (M87 and V94). The “Control” images were taken from cells grown for three days on SD-L-W media and the “Test” images were taken from cells grown for three days on SD-L-W-H with 3-AT. Growth of yeast cells expressing the indicated EPYC1 and Rubisco SSU variants was measured after three days on SD-L-W-H with varying 3-AT concentrations. The highest concentration of 3-AT (0, 1, 2.5, 5, 10, and 20 mM) permissive for the growth of each EPYC1 and Rubisco SSU variant combination is shown, as indicated in the “Key” on the right.
Mutagenesis of EPYC1, Mutagenesis of Rubisco, Yeast Two-hybrid, Peptide Arrays and SPR Assays To determine the importance of individual EPYC1 residues for binding to Rubisco, the impact on Rubisco binding of every possible single amino acid substitution for EPYC1 RBM 2 was determined (FIG. 8). To determine the importance of individual Rubisco residues for binding to EPYC1, targeted mutations of the amino acids identified from atomic modeling were tested in a yeast two-hybrid assay as in van Nues and Beggs (Genetics 157: 1451-1467, 2000). Peptide arrays and SPR assays were performed as in Example 1.

C. reinhardtii cells = test: Confocal fluorescence microscopy localization of Venus fusion proteins; type: cell-based, Chlamydomonas reinhardtii; details: Venus fluorescence in C. reinhardtii cells
From the text: A synthetic […] (Invitrogen) containing a 643 bp restriction fragment containing the C-terminus of Venus, followed by the sequence coding for the FLAG-tag sequence, and a sequence coding for three repetitions of the 15 C-terminal amino acids of SAGA2, was cloned into pLM005-FDX1, after restriction digestion with EcoRl and PfIMI. GenBank accession number of the empty pLM005 is KX077945.1. The plasmid pLM005-FDX1 is identical to pLM005 with the genomic sequence of FDX1 cloned in frame by Gibson Assembly (Mackinder et al., PNAS 113: 5958-5963, 2015) between residues 2698 and 3234. The terminal 85 amino acids of resultant mature fusion protein, immediately downstream of the FLAG-tag, were a 5 aa linker (GGGGS; SEQ ID NO: 87), a first copy of SAGA2 15 C-terminal aa, followed by a 10 aa linker (2X GGGGS; SEQ ID NO: 88), a second copy of SAGA2 15 last aa, another 10 aa linker (2X GGGGS; SEQ ID NO: 88), and finally a third copy of SAGA2 15 last aa. The sequence of the EcoRI-PfIMI digestion fragment (SEQ ID NO: 89) was cloned in frame into pLM005-FDX1.
Culturing and Transformation of C. reinhardtii: Culturing and transformation of C. reinhardtii for fluorescence localization of protein and imaging was performed as described in Mackinder et al. (PNAS 113: 5958-5963, 2015). […]

| Molecule | Rubisco SSU-EPYC1 interaction (EPYC1) | localization pattern within the pyrenoid (C. reinhardtii cells; FIG. 15) | localization (C. reinhardtii cells; FIGS. 14B and 15) |
| --- | --- | --- | --- |
| D23A: C. reinhardtii Rubisco SSU with mutation D23A (protein, left off: small tags and cut ends) MMVWTPVNNKMFETFSYLPPLTAEQIAAQVDYIVANGWIPCLEFAEADKAYVSNESAIRFGSVSCLYYDNRYWTMWKLPMFGCRDPMQVLREIVACTKAFPDAYVRLVAFDNQKQVQIMGFLVQRPKTARDFQPANKRSV | severe impact |  |  |
| E24A: C. reinhardtii Rubisco SSU with mutation E24A (protein, UniProt P00873 46-185, looked up, variant E24A) Ribulose bisphosphate …: MMVWTPVNNKMFETFSYLPPLTDAQIAAQVDYIVANGWIPCLEFAEADKAYVSNESAIRFGSVSCLYYDNRYWTMWKLPMFGCRDPMQVLREIVACTKAFPDAYVRLVAFDNQKQVQIMGFLVQRPKTARDFQPANKRSV | moderate defect |  |  |
| R91A: C. reinhardtii Rubisco SSU with mutation R91A (protein, UniProt P00873 46-185, looked up, variant R91A) Ribulose bisphosphate …: MMVWTPVNNKMFETFSYLPPLTDEQIAAQVDYIVANGWIPCLEFAEADKAYVSNESAIRFGSVSCLYYDNRYWTMWKLPMFGCRDPMQVLAEIVACTKAFPDAYVRLVAFDNQKQVQIMGFLVQRPKTARDFQPANKRSV | moderate defect |  |  |
| M87D: C. reinhardtii Rubisco SSU with mutation M87D (protein, UniProt P00873 46-185, looked up, variant M87D) Ribulose bisphosphate …: MMVWTPVNNKMFETFSYLPPLTDEQIAAQVDYIVANGWIPCLEFAEADKAYVSNESAIRFGSVSCLYYDNRYWTMWKLPMFGCRDPDQVLREIVACTKAFPDAYVRLVAFDNQKQVQIMGFLVQRPKTARDFQPANKRSV | severe impact |  |  |
| V94D: C. reinhardtii Rubisco SSU with mutation V94D (protein, UniProt P00873 46-185, looked up, variant V94D) Ribulose bisphosphate …: MMVWTPVNNKMFETFSYLPPLTDEQIAAQVDYIVANGWIPCLEFAEADKAYVSNESAIRFGSVSCLYYDNRYWTMWKLPMFGCRDPMQVLREIDACTKAFPDAYVRLVAFDNQKQVQIMGFLVQRPKTARDFQPANKRSV | severe impact |  |  |
| RBM P1-Venus: Rubisco-Binding Membrane Protein 1 (SEQ ID NO: 1) fused to the Venus fluorescent protein (protein) MQCQLKHGARPQSQRPNWLPARAATLRPAVQHGVRRGLTLGVKAAAAPLEDKKMPADMTTRQYRRVVYDFALWAKHRDVNRYLYNLRTIPGSRIIRQLSQPMGVVLAWAALFGFYETCLEAGVLPSYLPKMTLMSAEPQGLTSFALSLLLVFRTNSSYGRFDEARKIWGGILNRARNIANQAVTFIPAEDQAGREAVGKWTVGFTRALQAHLQEDIDLRKELEKATPRWSKEEIDMLVNAQHRPIKAISVLSELTRQLSITQFQALQMQENCTFFYDALGGCERLLRTPIPVSYTRHTARFLTIWLAMLPLGLWERYHWSMLPVIALIGFLLLGIDEIGISIEEPFGILPLDAICGRAQTDVNSLLKEDPAVMKYVDDVRSGRVKSPPPLPPAPAAPAAAAAAAAAAARSVSPQPDVAKTLGSLFTNVRAGVGAVAPGAPLMPQAPVRSPSPTRSVSPSFPRASAGTGMPPPVGMNGATPRVAAAPPTPPPVSRPAAPAAAPAAGSGFTMPNFSASLSGLTGGAAAAAKSAADAASSKLTKMADSMSSGAAAPAPPAAPARPSTSPRPSASSPISSSADADRSDSSRRPVNWRDELQSLKATREPNGNGNGSGVAPAAGRADADEEALRRFGNLAGRSRSGNGGGGSSDTELSEANRPRTRPDWRNQL |  | limited to an inner sphere of the Rubisco matrix | localized to the pyrenoid |
